Assay [1] concerns the target T1, IsdB (NEAT1 and NEAT2 domains connected by the helical linker), wild type (S. aureus, UniProt Q8NX66 125-485). Briefly: SPR. The conditions noted are these: both partners purified.
Assay [2] has as its target T1, IsdB (NEAT1 and NEAT2 domains connected …). In words: SPR. As to conditions: both partners purified. The source holds these as a separate data set.

From publication PMC6901573 (Scientific Reports, 2019) come the findings set out here.

T1 sequence (Q8NX66 125-485): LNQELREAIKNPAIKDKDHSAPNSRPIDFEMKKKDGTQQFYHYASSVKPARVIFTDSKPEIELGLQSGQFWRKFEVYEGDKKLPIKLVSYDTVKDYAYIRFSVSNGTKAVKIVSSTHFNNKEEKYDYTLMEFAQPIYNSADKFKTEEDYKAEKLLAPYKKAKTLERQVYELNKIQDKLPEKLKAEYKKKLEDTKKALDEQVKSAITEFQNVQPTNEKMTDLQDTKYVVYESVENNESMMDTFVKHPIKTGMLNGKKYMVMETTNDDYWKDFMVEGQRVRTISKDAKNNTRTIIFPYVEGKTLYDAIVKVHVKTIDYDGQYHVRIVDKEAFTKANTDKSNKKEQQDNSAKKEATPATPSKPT

B1: Human alpha-semihemoglobin, oxidized (met) form (complex)
chain 1: not shown
chain 2: not shown
For B1, the “KD of the first, reversible step of the two-state irreversible model” value (shortened to “KD of the first”) in assay [1] is 108 ± 11 nM.

B2: Human beta-semihemoglobin, oxidized (met) form (complex)
chain 1: not shown
chain 2: not shown
For the molecule B2, the “KD of the first” value in assay [1] stood at 91 ± 5 nM.

B3: Human hemoglobin A, oxidized form (methemoglobin, MetHb) (complex)
chain 1: not shown
chain 2: not shown
As to B3, the results for the “KD of the first” value in assay [1] and in assay [2] were 70 ± 6 nM and 69 ± 1 nM, respectively.
